# According to US20220213181A1 (Novartis, published 2022):
# Where a chain is given by its changes, count along the chain named.
# T1: Human ANGPTL3(17-460)-FLAG-His-Avi (human, UniProt Q9Y5C1 17-460, biotin on the C-terminal Avi tag (BirA))
# T1 construct: also called full length human ANGPTL3; hANGPTL3
# T1 sequence: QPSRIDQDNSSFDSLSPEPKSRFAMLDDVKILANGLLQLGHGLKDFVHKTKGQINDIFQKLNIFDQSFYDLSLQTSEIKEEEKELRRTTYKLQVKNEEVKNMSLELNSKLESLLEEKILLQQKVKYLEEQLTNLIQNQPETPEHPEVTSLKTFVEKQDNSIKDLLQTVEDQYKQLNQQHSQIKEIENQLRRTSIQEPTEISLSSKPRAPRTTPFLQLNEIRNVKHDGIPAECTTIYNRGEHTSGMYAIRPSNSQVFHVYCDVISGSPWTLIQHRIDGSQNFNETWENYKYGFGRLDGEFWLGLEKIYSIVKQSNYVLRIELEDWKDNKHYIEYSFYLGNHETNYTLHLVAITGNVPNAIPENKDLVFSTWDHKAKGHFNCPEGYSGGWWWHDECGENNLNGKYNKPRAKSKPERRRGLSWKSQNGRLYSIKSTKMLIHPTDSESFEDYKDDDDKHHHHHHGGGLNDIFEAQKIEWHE
# T2: Human ANGPTL4(26-406)-FLAG-His6-Avi (human, UniProt Q9BY76 24-406, biotin on the C-terminal Avi tag (BirA) where the protein is immobilised)
# T2 sequence: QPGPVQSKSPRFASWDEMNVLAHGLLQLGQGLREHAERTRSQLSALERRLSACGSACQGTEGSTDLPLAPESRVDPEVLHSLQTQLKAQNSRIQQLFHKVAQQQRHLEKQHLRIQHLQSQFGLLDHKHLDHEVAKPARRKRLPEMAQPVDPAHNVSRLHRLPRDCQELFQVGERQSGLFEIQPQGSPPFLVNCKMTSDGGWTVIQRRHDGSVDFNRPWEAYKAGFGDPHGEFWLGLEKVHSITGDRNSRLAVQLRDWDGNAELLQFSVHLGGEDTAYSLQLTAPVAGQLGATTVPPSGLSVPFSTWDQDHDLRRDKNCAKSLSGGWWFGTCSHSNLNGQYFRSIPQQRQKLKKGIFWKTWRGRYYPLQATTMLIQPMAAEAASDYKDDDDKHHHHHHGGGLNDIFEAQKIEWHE
# B1: NEG310 (antibody, human IgG1, kappa, V domains shown)
# VH: QVQLVQSGAEVKKPGASVKVSCKASGYTFTSYTMHWVRQAPGQGLEWMGYINPSSGYTKYNQKFQGRVTMTADKSTSTAYMELSSLRSEDTAVYYCAEGWLLLAMDYWGQGTLVTVSS
# VL: EAVVTQSPATLSLSPGERATLSCRSSTGAVTTSNYAIWVQEKPGQAPRGLIGGTNNRAPGIPARFSGSLSGDDATLTISSLQPEDFAVYFCALWYSDHWVFGQGTKVEIKR
# notes: humanized, hIgG1/kappa, parental antibody 17B1
# B2: NEG276 (antibody, human IgG1, kappa)
# heavy: not shown
# light: EIVMTQSPATLSVSPGERATLSCKASQDIGSNLNWLQQKPGQAPRRLIYAVSNRGPGIPARFSGSRSGSEYTLTISSLQSEDFAVYYCLQYASSPWTFGQGTKVEIKRTVAAPSVFIFPPSDEQLKSGTASVVCLLNNFYPREAKVQWKVDNALQSGNSQESVTEQDSKDSTYSLSSTLTLSKADYEKHKVYACEVTHQGLSSPVTKSFNRGEC
# notes: humanized, hIgG1/kappa, parental antibody 19C16
# B3: NEG278 (antibody, human IgG1, kappa, V domains shown)
# VH: QVQLVQSGAEVKKPGASVKVSCKASAYTFTSSWMQWVRQAPGQGLEWMGEIDPSDNYANYNQKFQGRVTLTVDTSTSTAYMELSSLRSEDTAVYYCASGSYFSNFFDYWGQGTLVTVSS
# VL: EIVMTQSPATLSVSPGERATLSCKASQDIGSNLNWLQQKPGQAPRRLIYAASVREPGIPARFSGSRSGSEYTLTISSLQSEDFAVYYCLQYASSPWTFGQGTKVEIKR
# notes: as for B2
# B4: NEG315 (antibody, human IgG1, kappa, V domains shown)
# VH: QVQLVQSGAEVKKPGASVKVSCKASGYTFTNYWITWVRQAPGQGLEWMGDFYPGGGNTNYNAKLQGRVTLTVDTSTSTAYMELRSLRSDDTAVYYCARSPPQVAPFDYWGQGTLVTVSS
# VL: DIQMTQSPSSLSASVGDRVTITCQASEYIYNWLGWYQQKPGKAPKLLISGASGLETGVPSRFSGSGSGKDYTFTISSLQPEDIATYYCQQYWSTPWTFGQGTKLEIKR
# notes: humanized, hIgG1/kappa, parental antibody 37P1
# B5: NEG313 (antibody, human IgG1, kappa, V domains shown)
# VH: B4 VH with T30N, N57S
# VL: B4 VL with E27D, N31H
# notes: as for B4
# B6: NEG319 (antibody, human IgG1, kappa, V domains shown)
# VH: B4 VH with N31S, Y32F, F51I, G56A, A62E, A104G
# VL: B4 VL with Y30I, G34A, S52T, T94I
# notes: humanized, hIgG1/kappa, parental antibody 14P18
# B7: NEG318 (antibody, human IgG1, kappa, V domains shown)
# VH: B4 VH with N31S, Y32F, F51I, G56A, N57T, A62E, A104G
# VL: B4 VL with E27D, N31H, G34A, G53S, T94I
# notes: as for B6
# B8: NEG276-LALA (antibody, human IgG1, kappa, L234A L235A)
# heavy: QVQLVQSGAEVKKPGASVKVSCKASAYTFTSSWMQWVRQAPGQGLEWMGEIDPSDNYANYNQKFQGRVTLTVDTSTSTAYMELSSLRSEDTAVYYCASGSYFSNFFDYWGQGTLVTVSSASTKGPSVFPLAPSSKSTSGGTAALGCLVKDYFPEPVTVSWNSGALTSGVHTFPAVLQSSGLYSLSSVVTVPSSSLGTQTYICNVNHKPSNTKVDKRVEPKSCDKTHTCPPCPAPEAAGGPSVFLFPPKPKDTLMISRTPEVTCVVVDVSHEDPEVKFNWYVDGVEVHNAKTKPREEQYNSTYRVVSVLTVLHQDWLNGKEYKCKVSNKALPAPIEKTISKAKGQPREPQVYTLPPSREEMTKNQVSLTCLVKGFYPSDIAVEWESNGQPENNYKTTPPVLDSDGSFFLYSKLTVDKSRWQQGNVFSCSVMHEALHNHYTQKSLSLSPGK
# light: B2 light
# Biological target: T1, Human ANGPTL3(17-460)-FLAG-His-Avi
# Test: direct ELISA on MSD streptavidin plate, biotinylated antigen immobilized at 1 nM, antibody at 1 nM, Sulfo-tagged anti-human IgG detection
# Procedure: Direct ELISA assays were conducted to characterize antibody binding specificity of selected antibodies of the invention. The assay was performed as follows. A 384-well streptavidin-coated Meso Scale Discovery (MSD) plate was blocked by incubating the plate with 50 μL Blocking Buffer (PBS, pH 7.4, 5% w/v bovine serum albumin) per well at 22° C. for 1 hour with constant shaking (600 rpm). The blocked MSD plate was then washed 3 times with Wash Buffer (PBS, pH 7.4 and 0.05% v/v Tween-20) using a plate washer (BioTek). Following washing, biotinylated human ANGPTL4 proteins diluted in Assay Buffer (PBS, pH 7.4 without CaCl₂ or MgCl₂, 0.5% w/v fatty acid-free bovine serum albumin and 0.02% v/v Tween-20) were immobilized on the surface by incubation at 1 nM concentration (15 μL per well) at 22° C. for one hour: full length human ANGPTL4 (hANGPTL4), human ANGPTL4 coiled-coil domain (hANGPTL4-CCD) and full length human ANGPTL3 (hANGPTL3). The plate was then washed 3 times as described earlier. Antibody diluted to 1 nM concentration in Assay Buffer was then applied to the MSD plate (15 μL per well), and the plate was incubated for 1 hour at 22° C. with constant shaking (600 rpm). Bound antibodies were detected by adding 15 μL per well of a 1:500 dilution of Sulfo-tagged goat anti-human IgG. The plate was then incubated for one hour with constant shaking (600 rpm). The plate was washed 3 times, and then 15 μL/well of 1× MSD read buffer T was added and the plate was developed using a Sector Imager 6000 (Meso Scale Discovery). The data were transferred to Microsoft Excel for analysis and plotted using GraphPad Prism v6. […] An ANGPTL3-specific reference antibody was used as a positive control for the ANGPTL3 binding assay (FIG. 2).
row,binding result,Binder
1,no binding (tested: 1 nM),B1
2,no binding (tested: 1 nM),B2
3,no binding (tested: 1 nM),B3
4,no binding (tested: 1 nM),B4
5,no binding (tested: 1 nM),B5
6,no binding (tested: 1 nM),B6
7,no binding (tested: 1 nM),B7

# Biological target: T2, Human ANGPTL4(26-406)-FLAG-His6-Avi
# Test: cell-based or functional assay
row,EC50 of the antibody-mediated increase in lipoprotein lipase enzyme activity (reversal of LPL inhibition by ANGPTL4),Binder
1,1.6 nM,B1
2,0.6 nM,B2
3,0.7 nM,B3
4,0.7 nM,B8
5,3 nM,B4
6,3 nM,B5
7,0.5 nM,B6
8,1.4 nM,B7

# Biological target: T2, Human ANGPTL4(26-406)-FLAG-His6-Avi
# Test: Octet (ForteBio) kinetics, biotinylated antigen on streptavidin sensor, IgG in solution
# Procedure: Dissociation constants (KD) were determined for selected antibodies of the invention by using an Octet (ForteBio) kinetic binding assay. ForteBio 10× Kinetics Buffer (ForteBio, catalog number 18-5032) was diluted 10-fold with DPBS (Life Technologies, catalog number 14190-136), and the resulting solution was added (0.2 ml per well) to a 96-well plate (Greiner, catalog number 65520). Streptavidin sensors (ForteBio, catalog number 18-5020) were immersed in the solution and equilibrated for at least 10 min at room temperature. In a second 96-well plate (Greiner, catalog number 65520), sensors were washed in 1× Kinetics buffer, and then immersed in 200 ul of 25 nM biotinylated human ANGPTL4 or a biotinylated reference protein (for background subtraction) for 1000 sec at […] room temperature. […] The sensors were then transferred to a well containing 200 μl 1× Kinetics buffer, and antibody dissociation was monitored for 1200 seconds. Background-corrected association and dissociation curves were globally fitted by Octet Software (ForteBio) to generate association (kₐ) and dissociation (kd) rate constants, which in turn were used to calculate equilibrium dissociation constants (KD).
Kd,koff,kon,Binder
0.025 nM,1.1e-05 s⁻¹,220000 M⁻¹ s⁻¹,B1
0.023 nM,8e-06 s⁻¹,340000 M⁻¹ s⁻¹,B2
,,300000 M⁻¹ s⁻¹,B3
0.029 nM,7.9e-06 s⁻¹,280000 M⁻¹ s⁻¹,B4
0.04 nM,1.1e-05 s⁻¹,280000 M⁻¹ s⁻¹,B5
0.036 nM,1e-05 s⁻¹,280000 M⁻¹ s⁻¹,B6
0.045 nM,1.2e-05 s⁻¹,270000 M⁻¹ s⁻¹,B7
